Experimental data reported in US20230143604A1, “QW DOSING OF GIP RECEPTOR AGONIST PEPTIDE COMPOUNDS AND USES THEREOF” (TAKEDA PHARMACEUTICAL COMPANY LIMITED, priority 2020, published 2023).
Starred links: 1 amine or outer side, 2 acyl side, 3 side chain; linkers in the order of their positions; H or OH if unused. Non-standard residues stand in square brackets, D forms with d. Residues, ends and D or L forms follow the SMILES beside them. Groups on a side chain read outwards from the residue. No end group written: not given here. *: point of attachment. C18 diacid = O=C(O)CCCCCCCCCCCCCCCCC(=O)*; C17 diacid = O=C(O)CCCCCCCCCCCCCCCC(=O)*; γGlu = O=C(O)[C@H](CCC(=O)[*:2])N[*:1]; NMeY = CN[C@@H](Cc1ccc(O)cc1)C(=O)O; AEEA = NCCOCCOCC(=O)O; Aib = CC(C)(N)C(=O)O

What was measured:
[1] = Serum half-life and percentage remaining at 48 hours; type: in vitro ADME; details: both sexes, pH 7.4, human plasma, 500 nM peptide, 37° C.; for half-life at 500 nM: read-out: Serum t1/2 (converted); for remaining at 48 h, 500 nM: plasma (sodium heparin)
Protocol: Human plasma (mixed gender: sodium heparin is used as anti-coagulant; pre-adjusted to pH 7.4—NB alternative species may be used) is spiked with each test peptide (500 nM) and incubated·cn=3) at 37° C. for 48 hours in a 5% CO2 environment. Aliquots are taken at 0. 1, 2, 4, 7, 24 and […] and pH adjusted to pH 3 with 20% formic acid prior to analysis. Appropriate positive control compounds will be incubated in parallel, in addition to a no plasma control, sampled at 0 and 8 hours. All samples will be treated with ice-cold acetonitrile/methanol (4:1 (v/v)) containing internal standard prior to centrifugation at 2000 g and 4° C. for 10 minutes and subjected to LC-MS/MS analysis.
The samples are analyzed by LC-MS/MS using a 6500 (or equivalent) triple quadrupole mass spectrometer (AB Sciex) coupled to an appropriate Liquid Chromatography (LC) system. Protein binding and stability values are determined via peak area ratios using multiple reaction monitoring (MRM) parameters following compound optimisation. Multiple reaction monitoring (MRM) is a highly sensitive method of targeted mass spectrometry (MS) that can be used to selectively detect and quantify peptides based on the screening of specified precursor peptide-to-fragment ion transitions.

[2] = Solubility in phosphate buffer pH 7.4
Method in brief: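 3 mg of peptide treated with 100 μL portions of 200 mM phosphate buffer pH 7.4, sonicating/vortexing up to 1 min, with further buffer added until fully dissolved. Solubility then quantified by HPLC.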

human plasma proteins = assay: plasma protein binding, ultracentrifugation, LC-MS/MS
dog plasma proteins = assay: as above
[3] = biological target: T1, full-length human GIPR with an N-terminal FLAG tag (human, UniProt P48546 22-466); assay: cell-based or functional assay
T1 sequence (looked up): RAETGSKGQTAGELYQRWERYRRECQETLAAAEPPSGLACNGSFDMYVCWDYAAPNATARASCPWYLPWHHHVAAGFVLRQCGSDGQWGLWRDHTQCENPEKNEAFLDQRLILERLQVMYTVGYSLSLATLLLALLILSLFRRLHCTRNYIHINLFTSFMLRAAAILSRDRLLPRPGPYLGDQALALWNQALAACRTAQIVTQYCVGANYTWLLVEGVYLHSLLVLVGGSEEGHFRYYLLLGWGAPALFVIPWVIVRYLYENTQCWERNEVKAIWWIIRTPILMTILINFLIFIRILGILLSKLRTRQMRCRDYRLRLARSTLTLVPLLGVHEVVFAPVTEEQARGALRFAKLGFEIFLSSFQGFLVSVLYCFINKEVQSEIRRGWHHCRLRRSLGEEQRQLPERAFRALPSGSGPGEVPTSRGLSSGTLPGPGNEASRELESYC

[4] = biological target: full-length human GLP-1R with an N-terminal FLAG tag (human, UniProt P43220 24-463); assay: cell-based or functional assay
[5] = biological target: full-length human GLP-1R with an N-terminal FLAG tag, overexpressed on HEK-293T cells (human, UniProt P43220 24-463); assay: cell-based or functional assay
[6] = biological target: T2, full-length human GIPR with an N-terminal FLAG tag, overexpressed on HEK-293T cells (human, UniProt P48546 22-466); assay: cell-based or functional assay
T2 sequence (looked up): T1 sequence (looked up)

[7] = pH 7.4, aqueous buffer, pH 7.4 Phosphate Buffer - Solubility, 200 mM Phosphate buffer pH 7.4
[8] = pH 7.4, solubility in phosphate buffer at pH 7.4, 200 mM phosphate buffer pH 7.4

## CC[C@H](C)[C@H](NC(=O)[C@H](CO)NC(=O)[C@H](Cc1ccc(O)cc1)NC(=O)[C@H](CC(=O)O)NC(=O)[C@H](CO)NC(=O)[C@@H](NC(=O)[C@H](Cc1ccccc1)NC(=O)[C@@H](NC(=O)CNC(=O)[C@H](CCC(=O)O)NC(=O)C(C)(C)NC(=O)[C@H](Cc1ccc(O)cc1)NC)[C@@H](C)O)[C@@H](C)CC)C(=O)N[C@@H](C)C(=O)N[C@@H](CC(C)C)C(=O)N[C@@H](CC(=O)O)C(=O)N[C@@H](CCCNC(=N)N)C(=O)NC(C)(C)C(=O)N[C@@H](Cc1c[nH]cn1)C(=O)N[C@@H](CCC(N)=O)C(=O)NC(C)(C)C(=O)N[C@@H](CC(N)=O)C(=O)N[C@@H](Cc1ccccc1)C(=O)N[C@H](C(=O)N[C@@H](CC(N)=O)C(=O)N[C@@H](Cc1c[nH]c2ccccc12)C(=O)N[C@@H](CC(C)C)C(=O)N[C@@H](CC(C)C)C(=O)N[C@@H](C)C(=O)N[C@@H](CCC(N)=O)C(=O)N[C@@H](CCCCNC(=O)COCCOCCNC(=O)COCCOCCNC(=O)CC[C@H](NC(=O)CCCCCCCCCCCCCCCCC(=O)O)C(=O)O)C(=O)N1CCC[C@H]1C(=O)N[C@@H](CO)C(=O)N[C@@H](CO)C(=O)NCC(=O)N[C@@H](C)C(=O)N1CCC[C@H]1C(=O)N1CCC[C@H]1C(=O)N1CCC[C@H]1C(=O)N[C@@H](CO)C(N)=O)C(C)C [Compound 1] (H-[NMeY][Aib]EGTFISDYSIALDR[Aib]HQ[Aib]NFVNWLLAQK([AEEA-AEEA-γGlu-C18 diacid])PSSGAPPPS-NH2)
[1]
  half-life at 500 nM: > 48 h
  remaining at 48 h, 500 nM: 100%
[2]; [7]
  solubility: ≥ 30 mg/mL
[2]; [8]
  solubility: ≥ 15 mg/mL

## CC[C@H](C)[C@H](NC(=O)[C@H](CO)NC(=O)[C@H](Cc1ccc(O)cc1)NC(=O)[C@H](CC(=O)O)NC(=O)[C@H](CO)NC(=O)[C@@H](NC(=O)[C@H](Cc1ccccc1)NC(=O)[C@@H](NC(=O)CNC(=O)[C@H](CCC(=O)O)NC(=O)C(C)(C)NC(=O)[C@H](Cc1ccc(O)cc1)NC)[C@@H](C)O)[C@@H](C)CC)C(=O)N[C@@H](C)C(=O)N[C@@H](CC(C)C)C(=O)N[C@@H](CC(=O)O)C(=O)N[C@@H](CCCNC(=N)N)C(=O)N[C@H](C(=O)N[C@@H](Cc1c[nH]cn1)C(=O)N[C@@H](CCC(N)=O)C(=O)NC(C)(C)C(=O)N[C@@H](CC(N)=O)C(=O)N[C@@H](Cc1ccccc1)C(=O)N[C@H](C(=O)N[C@@H](CC(N)=O)C(=O)N[C@@H](Cc1c[nH]c2ccccc12)C(=O)N[C@@H](CC(C)C)C(=O)N[C@@H](CC(C)C)C(=O)N[C@@H](C)C(=O)N[C@@H](CCC(N)=O)C(=O)N[C@@H](CCCCNC(=O)COCCOCCNC(=O)COCCOCCNC(=O)CC[C@H](NC(=O)CCCCCCCCCCCCCCCCC(=O)O)C(=O)O)C(=O)N1CCC[C@H]1C(=O)N[C@@H](CO)C(=O)N[C@@H](CO)C(=O)NCC(=O)N[C@@H](C)C(=O)N1CCC[C@H]1C(=O)N1CCC[C@H]1C(=O)N1CCC[C@H]1C(=O)N[C@@H](CO)C(N)=O)C(C)C)[C@@H](C)CC [Compound 2] (H-[NMeY][Aib]EGTFISDYSIALDRIHQ[Aib]NFVNWLLAQK([AEEA-AEEA-γGlu-C18 diacid])PSSGAPPPS-NH2)
[1]
  half-life at 500 nM: 24.1 h
  remaining at 48 h, 500 nM: 27%
[2]; [7]
  solubility: ≥ 30 mg/mL
[2]; [8]
  solubility: ≥ 15 mg/mL

## CC[C@H](C)[C@H](NC(=O)[C@H](CO)NC(=O)[C@H](Cc1ccc(O)cc1)NC(=O)[C@H](CC(=O)O)NC(=O)[C@H](CO)NC(=O)[C@@H](NC(=O)[C@H](Cc1ccccc1)NC(=O)[C@@H](NC(=O)CNC(=O)[C@H](CCC(=O)O)NC(=O)C(C)(C)NC(=O)[C@H](Cc1ccc(O)cc1)NC)[C@@H](C)O)[C@@H](C)CC)C(=O)N[C@@H](C)C(=O)N[C@@H](CCCCNC(=O)COCCOCCNC(=O)COCCOCCNC(=O)CC[C@H](NC(=O)CCCCCCCCCCCCCCCCC(=O)O)C(=O)O)C(=O)N[C@@H](CC(=O)O)C(=O)N[C@@H](CCCNC(=N)N)C(=O)N[C@H](C(=O)N[C@@H](Cc1c[nH]cn1)C(=O)N[C@@H](CCC(N)=O)C(=O)N[C@@H](CCC(N)=O)C(=O)N[C@@H](CC(N)=O)C(=O)N[C@@H](Cc1ccccc1)C(=O)N[C@H](C(=O)N[C@@H](CC(N)=O)C(=O)N[C@@H](Cc1c[nH]c2ccccc12)C(=O)N[C@@H](CC(C)C)C(=O)N[C@@H](CC(C)C)C(=O)N[C@@H](C)C(=O)N[C@@H](CCC(N)=O)C(=O)N[C@@H](CCCNC(=N)N)C(=O)N1CCC[C@H]1C(=O)N[C@@H](CO)C(=O)N[C@@H](CO)C(=O)NCC(=O)N[C@@H](C)C(=O)N1CCC[C@H]1C(=O)N1CCC[C@H]1C(=O)N1CCC[C@H]1C(=O)N[C@@H](CO)C(N)=O)C(C)C)[C@@H](C)CC [Compound 3] (H-[NMeY][Aib]EGTFISDYSIAK([AEEA-AEEA-γGlu-C18 diacid])DRIHQQNFVNWLLAQRPSSGAPPPS-NH2)
[1]
  half-life at 500 nM: 15.9 h
  remaining at 48 h, 500 nM: 13%
[2]; [7]
  solubility: ≥ 30 mg/mL
[2]; [8]
  solubility: ≥ 15 mg/mL

## [NMeY][Aib]EGTFISDYSIALDR[Aib]K([AEEA-AEEA-γGlu-γGlu-C17 diacid])Q[Aib]NFVNWLLAQSPSSGAPPPS-NH2 [Compound No. 11]
Human plasma proteins
  Human PPB (FUplasma), fraction unbound in plasma (fraction unbound): 0.0038
Dog plasma proteins
  Dog PPB (FUplasma), fraction unbound in plasma (fraction unbound): < 0.0024
[3]
  Human GIPR cAMP EC50, HEK293T: 0.0003 nM
[4]
  Human GLP1R cAMP EC50, HEK293T: 1000 nM

## [NMeY][Aib]EGTFISDYSIALDR[Aib]AQ[Aib]K([AEEA-AEEA-γGlu-γGlu-C17 diacid])FVNWLLAQRG-OH [Compound No. 36]
Human plasma proteins
  Human PPB (FUplasma), fraction unbound in plasma (fraction unbound): < 0.002
Dog plasma proteins
  Dog PPB (FUplasma), fraction unbound in plasma (fraction unbound): 0.0034
[3]
  Human GIPR cAMP EC50, HEK293T: 0.0007 nM
[4]
  Human GLP1R cAMP EC50, HEK293T: 87.1 nM

## [NMeY][Aib]EGTFISDYSI[Aib]LDR[Aib]AQ[Aib]K([2OEGgEgE-C18 diacid])FVNWLLAQRG-OH [Compound No. 72]
Human plasma proteins
  Human PPB (FUplasma), fraction unbound in plasma (fraction unbound): 0.0036
Dog plasma proteins
  Dog PPB (FUplasma), fraction unbound in plasma (fraction unbound): 0.0062
[3]
  Human GIPR cAMP EC50, HEK293T: 0.0005 nM
[4]
  Human GLP1R cAMP EC50, HEK293T: 43.2 nM

## [NMeY][Aib]EGTFISDYSIALDR[Aib]K([AEEA-AEEA-γGlu-γGlu-C18 diacid])Q[Aib]NFVNWLLAQSPSSGAPPPS-NH2 [Compound No. 293]
Human plasma proteins
  Human PPB (FUplasma), fraction unbound in plasma (fraction unbound): < 0.002
Dog plasma proteins
  Dog PPB (FUplasma), fraction unbound in plasma (fraction unbound): < 0.002
[5]
  Human GLP1R cAMP EC50, HEK293T: 129 nM
[6]
  Human GIPR cAMP EC50, HEK293T: 0.0004 nM

## [NMeY][Aib]EGTFISDYSIALDR[Aib]AQ[Aib]K([2OEGgEgE-C17 diacid])FVNWLLAQR-NH2 [Compound No. 8]
Human plasma proteins
  Human PPB (FUplasma), fraction unbound in plasma (fraction unbound): 0.0009
Dog plasma proteins
  Dog PPB (FUplasma), fraction unbound in plasma (fraction unbound): 0.0016
[3]
  Human GIPR cAMP EC50, HEK293T: 0.0003 nM
[4]
  Human GLP1R cAMP EC50, HEK293T: 41.4 nM

## [NMeY][Aib]EGTFISDYSIALDR[Aib]AQ[Aib]K([AEEA-AEEA-γGlu-γGlu-C18 diacid])FVNWLLAQRG-OH [Compound No. 37]
Human plasma proteins
  Human PPB (FUplasma), fraction unbound in plasma (fraction unbound): 0.001
Dog plasma proteins
  Dog PPB (FUplasma), fraction unbound in plasma (fraction unbound): 0.0012
[3]
  Human GIPR cAMP EC50, HEK293T: 0.0005 nM
[4]
  Human GLP1R cAMP EC50, HEK293T: 44.7 nM

## [NMeY][Aib]EGTFISDYSIALDR[Aib]AQ[Aib]K(2OEGgEgE‑C20 diacid)FVNWLLAQKG-OH [Compound No. 39]
Human plasma proteins
  Human PPB (FUplasma), fraction unbound in plasma (fraction unbound): 0.0112
Dog plasma proteins
  Dog PPB (FUplasma), fraction unbound in plasma (fraction unbound): 0.0015
[3]
  Human GIPR cAMP EC50, HEK293T: 0.0017 nM
[4]
  Human GLP1R cAMP EC50, HEK293T: 13.2 nM
